Here are results for six compounds from PMC9100253 (International Journal of Molecular Sciences, 2022).

Data set [1] deals with T1, CTX-M-15 (Escherichia coli, UniProt A0A5R8T042, S73A).
T1 construct: gene bla
In words: biochemical.

In data set [2] the target is T2, CTX-M-15 (Escherichia coli, UniProt A0A5R8T042).
T2 construct: gene bla; blaCTX-M-15 in pET200 TOPO, E. coli BL21(DE3); DEAE and hydroxyapatite purification; three molecules per asymmetric unit
In words: inhibition of ceftiofur hydrolysis, absorbance. In kind it is biochemical.

The subject of data set [3] is O=C(Cc1cccs1)N[C@@H]1C(=O)N2C(C(=O)O)=C(/C=C/c3ccc([N+](=O)[O-])cc3[N+](=O)[O-])CS[C@H]12. In words: purified protein. In kind it is biochemical, Escherichia coli. The following applies: PBS pH 7.4, 10 nM enzyme.
For data set [4], the system named is CC1(C)S[C@@H]2[C@H](NC(=O)[C@H](N)c3ccccc3)C(=O)N2[C@H]1C(=O)O. In words: purified protein. In kind it is biochemical, Escherichia coli. The settings on record: PBS pH 7.4, 10 nM enzyme, acyl-enzyme structure, covalent.
Data set [5] deals with CO/N=C(\C(=O)N[C@@H]1C(=O)N2C(C(=O)O)=C(CSC(=O)c3ccco3)CS[C@H]12)c1csc(N)n1. In words: purified protein. In kind it is biochemical, Escherichia coli. The settings on record: PBS pH 7.4, 10 nM enzyme.
Data set [6] has as its system CO/N=C(\C(=O)N[C@@H]1C(=O)N2C(C(=O)O)=C(CS)CS[C@H]12)c1csc(N)n1. In words: purified protein. The following applies: PBS pH 7.4, 10 nM enzyme, acyl-enzyme structure, covalent. The format is biochemical, Escherichia coli.

The Kd is the constant that tells how readily two partners part at equilibrium. A higher Kd goes with weaker binding. The compound `CC1(C)S[C@@H]2[C@H](NC(=O)[C@H](N)c3ccccc3)C(=O)N2[C@H]1C(=O)O` [ampicillin] had a Kd on CTX-M-15 [1] of 28.8 µM. In other words, the double-digit micromolar range.
Still for that read-out and setting: the same measure for `CO/N=C(\C(=O)N[C@@H]1C(=O)N2C(C(=O)O)=C(CSC(=O)c3ccco3)CS[C@H]12)c1csc(N)n1` [ceftiofur]: 38.2 µM.
A word on the Ki: it is a measure of affinity in units of concentration, obtained from inhibition or displacement. Low readings indicate a stronger hold on the target, high ones a looser hold on the target. In the case of `O=C(O)[C@H]1/C(=C/CO)O[C@@H]2CC(=O)N21` [clavulanic acid], the affinity on CTX-M-15 [1], expressed as Kd, was 289 µM. The compound also had a Ki at CTX-M-15 [2] of 0.022 ± 0.007 µM.
The compound `CO/N=C(\C(=O)N[C@@H]1C(=O)N2C(C(=O)O)=C(CS)CS[C@H]12)c1csc(N)n1` [desfuroylceftiofur] came in with a Kd on CTX-M-15 [1] of 10.7 µM.
`O=C(Cc1cccs1)N[C@@H]1C(=O)N2C(C(=O)O)=C(/C=C/c3ccc([N+](=O)[O-])cc3[N+](=O)[O-])CS[C@H]12` [nitrocefin] had a dissociation constant (Kd) on CTX-M-15 [1] of 71.3 µM.
The Km is the substrate concentration at which the rate is half of its maximum. The term Vmax denotes the top rate of the reaction or transport when substrate is in excess. As a reminder, the kcat is the maximal rate divided by the concentration of active sites. For orientation: kcat/Km means the second-order rate constant that governs catalysis at low substrate concentration. CTX-M-15 (Escherichia coli O25b:H4): in data set [3], the Km was 1047.0 ± 75.8 µM and the Vmax was 203 µmol/min. In data set [4], the Km came to 197.8 ± 13.0 µM, the Vmax was 60.6 µmol/min, the turnover number (kcat) is 102 ± 5.6 s⁻¹ and the specificity constant (kcat/Km) is 520000 ± 10000 M⁻¹ s⁻¹. In addition, in data set [5], the Km worked out at 330.0 ± 14.1 µM, the Vmax came to 188 µmol/min, the kcat turned out to be 314 ± 13 s⁻¹ and the kcat/Km is 950000 ± 10000 M⁻¹ s⁻¹. In addition, in data set [6], the Michaelis-Menten constant (Km) was 141.2 ± 11.2 µM, the Vmax was found to be 293 µmol/min, the turnover number (kcat) is 490 ± 16.2 s⁻¹ and the specificity constant (kcat/Km) was 3.46e+06 ± 140000 M⁻¹ s⁻¹.
